Source: patent US20220267422A1 (PHAROSGEN, published 2022)

T1: mPRND
T1 construct: also called Mouse PRND; mouse doppel, recombinant, C-terminal His tag
T1 single chain: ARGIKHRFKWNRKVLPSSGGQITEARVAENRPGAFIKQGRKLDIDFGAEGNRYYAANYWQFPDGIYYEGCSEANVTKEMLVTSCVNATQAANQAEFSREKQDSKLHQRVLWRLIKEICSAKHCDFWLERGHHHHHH


Columns and labels:
[1] = biological target: T2, human doppel on human tumor endothelial cells (human, UniProt Q9UKY0 26-152); experiment: flow cytometry on HCTEC (human colonic tumor endothelial cells), fluorescent secondary antibody; no control bar and no antibody concentration shown
T2 construct: whole, on cells; also called PRND; hPRND
T2 sequence (Q9UKY0 26-152): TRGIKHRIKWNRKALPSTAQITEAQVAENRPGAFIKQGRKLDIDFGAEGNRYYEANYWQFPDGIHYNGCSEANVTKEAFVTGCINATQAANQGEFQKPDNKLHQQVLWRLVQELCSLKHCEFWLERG

[2] = biological target: doppel (Prnd) recombinant protein immobilized on the SPR sensor chip; experiment: SPR, BIAcore T100, recombinant protein immobilized on chip
doppel (Prnd) recombinant protein immobilized on the SPR sensor chip, sequence (Q9UKY0 26-152): as above
Experimental: Affinity measurements of anti-doppel monoclonal antibodies produced by the clones described herein with Prnp and Prnd (doppel) were performed by the surface plasmon resonance on a BIAcore T100 (GE Healthcare). Using the standard EDAC-NHS coupling method, recombinant proteins were immobilized at a density of 4000-7000 onto a sensor chip (GE Healthcare). Measurements were performed at a flow rate of 20 μL/min, and 50 mM NaOH was used to regenerate the chip surface after each cycle of analysis. Each concentration was analyzed in duplicate. Kinetic analysis of the data obtained was performed using BIAcore T100 evaluation software (GE Healthcare).

[3] = biological target: T3, Doppel on HCT116 cells, HUVEC and Dpl k/d HUVEC (human, UniProt Q9UKY0); experiment: flow cytometry, '% Doppel Ab binding cell' on HCT116, HUVEC and doppel knock-down HUVEC (24h, 48h); no control antibody and no concentration shown
T3 construct: endogenous, on the surface of HCT116 cells, HUVEC and doppel knock-down HUVEC; also called PRND
T3 sequence (Q9UKY0 26-152 limits assumed): as the sequence (Q9UKY0 26-152) above

mPRND [4] = biological target: T1, mPRND; experiment: ELISA, […], antibody 0-100 nM; […] (nM)'; […]
mPRND [5] = biological target: T1, mPRND; experiment: ELISA, […], antibody 0-100 nM; […] (nM)'
[6] = biological target: T2, human doppel on human tumor endothelial …; experiment: flow cytometry on human tumor endothelial cells, cancer cells and doppel knock-down cells
mPRND [7] = biological target: T1, mPRND; experiment: ELISA, […], antibody 0-100 nM; […] (nM)'

Binder	binding result [1]	Kd [2]	binding result [3]	Kd (mPRND [4])	Kd (mPRND [5])	binding result [6]	Kd (mPRND [7])
murine monoclonal antibody produced by hybridoma cell line clone 2E9 (antibody, V domains shown, also called hPrnd #2E9; KCLRF-BP-00493) VH: not shown VL: DVQMTQTTSSLSASLGDRVTISCSASRGISNYLNWYQQKPDGTVKLLIYYTSSLHSGVPPRFSGSGSGTDYSLTISNLEPEDIATYYCQQYSKLPSTFGGGTKVEIK	binds	4.05 nM					
murine monoclonal antibody produced by hybridoma cell line clone 7G3 (antibody, V domains shown, also called hPrnd #7G3; KCLRF-BP-00500) VH: EIQLQQTGPELVKPGASVKISCKASGYSFTDYIMLWVKQSHGKSLEWIGNINPYYGSTSYNLKFKGKATLTVDKSSSTAYMQLNSLTSEDSAVYYCARRNYYGNYDAMDYWGQGTSVTVSS VL: QIVLTQSPAIMSASLGERVTMTCTASSSVSSSYLHWYQQKPGSSPKLWIYSTSNLASGVPARFSGSGSGTSYSLTISSMEAEDTATYYCHQYHRSPLTFGAGTKLELK	binds	10.6 nM	binds	25.9 nM			
murine monoclonal antibody produced by hybridoma cell line clone 2B6 (antibody, V domains shown, also called hPrnd #2B6; KCLRF-BP-00490) VH: QVQLQQSGAELVRPGVSVKLSCKFSGFTFTDYAMHWVRQSHAKSLAWIGVISSYYGDASYNQKFTGKATMTVDKSSSTAYMELARLTSEDSAIYYCARRLRGAMDYWGQGTSVTVSS VL: DIVMTQSQKFMSTSVGDRVSVTCKASQNVDANVAWYQQKPGQSPKALIYSASYRYSGVPYRFTGSGSGTDFTLTISNVQSADLAEYFCQQYNSYPFTFGSGTKLELK	binds	0.292 nM	binds		6.52 nM		
murine monoclonal antibody produced by hybridoma cell line clone 7A11 (antibody, V domains shown, also called hPrnd #7A11; KCLRF-BP-00498) VH: QVQLQQPGAELVRPGASVKLSCKASGYTFTSYWINWVKQRPGQGLEWIGNIYPSDSYTNYNQKFKDKATLTVDKSSSTAYMQLSSPTSEDSAVYYCTRSMITWGQGTTLTVSS VL: DVLMTQTPLSLPVSLGDQASISCRSSQSIVHSNGNTYLEWYLQKPGQSPKVLIYKVSNRFSGVPDRFSGSGSGTDFTLKINRVEAEDLGVYYCFQGSHVPLTFGAGTKLELK		0.253 nM			0.876 nM		
Human monoclonal antibody A12 (antibody, V domains shown) VH: not shown VL: DIQMTQSPSSLSASVGDRVTITCRASQSIGSYLNWYQQKPGKAPKLLIYAASTLQSGVPSRFSGSGSGTDFTLTISSLQPEDFATYYCQQSYSFPWTFGQGTKVEIKR		9.2 nM	binds			binds	
Human monoclonal antibody B2 (antibody, V domains shown) VH: not shown VL: DIQMTQSPSSLSASVGDRVTITCRASQSISNYLNWYQQKPGKAPKLLIYAASRLQSGVPSRFSGSGSGTDFTLTISSLQPEDFATYYCQQSYSFPWTFGQGTKVEIKR		7.99 nM	binds			binds	
Human monoclonal antibody E9 (antibody, human IgG1, kappa, V domains shown) VH: QVQLVQSGAEVKKPGSSVKVSCKASGGTFSSYYMHWVRQAPGQGLEWMGRISPGGGGTIYAQKFQGRVTITADESTSTAYMELSSLRSEDTAVYYCARAQSEGLSYYFDVWGQGTLVTVSS VL: DIQMTQSPSSLSASVGDRVTITCRASQSIRNYLNWYQQKPGKAPKLLIYAASNLQSGVPSRFSGSGSGTDFTLTISSLQPEDFATYYCQQSSSFPLTFGQGTKVEIKR		4.41 nM					
murine monoclonal antibody produced by hybridoma cell line clone 4H7 (antibody, V domains shown, also called hPrnd #4H7; KCLRF-BP-00496) VH: DVQLQESGPDLVKPSQSLSLTCTVTGYSITSGYSWHWIRQFPGNKLEWMGYIHYSGNTNYNPSLKSRISITRDTSKNQFFLQLNSVTTEDTATYSCAMRTYYYGPLDYWGQGTTLTVSS VL: not shown	binds	0.0287 nM					0.868 nM
murine monoclonal antibody produced by hybridoma cell line clone 2C10 (antibody, V domains shown, also called hPrnd #2C10; KCLRF-BP-00491) VH: EVQLQESGPSLVKPSQTLSLTCSVTGDSITSGYWNWIRKFPGNKLEYMGYIRYSGSAYYNPSLKSRISITRDTSKNQYYLQLNSVTTEDTATYYCARYPYYGSYWYFDVWGAGTTVTVSS VL: DVQITQSPSYLAASPGETITLNCRASKSISKYLAWYQEKPGKTNKLLIYSGSTLQSGIPSRFSGSGSGSDFTLTISSLEPEDFAMYYCQQHSEYPWTFGGGTKLEIK		8.76 nM	binds			binds	
